From patent publication US20240209061A1, “FUSION PROTEINS AND USES THEREOF” (Pfizer Inc., priority 2020, published 2024)
One block for each substance: values may come before it.

Columns and labels:
[1] = system: Jurkat-IL-2-Luc reporter cells; assay: Jurkat-IL-2-Luc and HCT116-CD64 reporter co-stimulation assay; type: cell-based, human
From the text: A T cell co-stimulation assay was designed based on T Cell Activation Bioassay (IL-2) Kit from Promega (Product #J1631). The assay consisted of a genetically engineered Jurkat T cell line that expresses luciferase reporter driven by an IL-2 promoter. Co-engagement of T cell antigen receptor (TCR/CD3) and CD28 co-stimulatory receptor induces activation of T cells and downstream intracellular signaling pathways that in turn regulate the expression of luciferase reporter. As described above, HCT116 human colon cancer cell line was used for TCR engagement using the CDH3×CD3 bispecific and genetically engineered by lentiviral transduction to express human FCγRI.
A 96 well culture plate was seeded with HCT116 parental or HCT116-CD64 cells at 40,000 cells per well in 100 μL RPMI with 10% HI FBS and grown overnight at 37° C. in CO2 incubator. To each well, Jurkat reporter cells (100,000 per well) and 10 μL of the CDH3×CD3 bispecific (8 ng/ml final concentration) were added. 10 μL of serial dilutions of variant CD80-Fc fusion proteins with concentrations ranging from 0-1000 ng/ml (final concentrations per well) was added with appropriate controls. Assay plates were incubated for 6 hours at 37° C. in CO2 incubator for before harvesting culture supernatants and transferring to new plates. Following equilibration, 80 μL of BioGlo luminescence reagent (BioGlo Luciferase assay kit, Promega, G7940) was added into each well. Plates were incubated for 5 minutes before reading luminescence on the EnSight™ plate reader (PerkinElmer).
Jurkat is an immortalized human T cell line, and the Jurkat IL-2-reporter assay assesses the CD28-mediated signaling resulting in activation of the IL-2 promoter. The activity of CD80-Fc fusion proteins was measured using the co-culture HCT116-CD64-Jurkat IL-2 reporter assay, as described in Example 2, but using 20 ng/ml CDH3×CD3 bispecific.

[2] = Pharmacokinetics in cynomolgus monkeys; type: in vivo; conditions: cynomolgus monkey
Experimental: PK of variant CD80-Fc fusion proteins was assessed in non-human primates. […] A ligand binding assay using the Gyrolab Immunoassay platform was used to quantitate CD80-Fc molecules in cynomolgus monkey serum following dose administration. CD80-Fc constructs were captured onto the Gyrolab Bioaffy CD using a biotinylated monoclonal anti-human CD80 antibody (Thermo Fisher Cat #13-0809-82). Bound CD80-Fc constructs were detected using a mouse anti-human Fc antibody (SouthernBiotech Cat #9040-01) that was labeled with Alexa Fluor 647. Sample concentrations were determined by interpolation from a calibration curve that were fit using a 5-parameter logistic regression model. The range of quantitation of the assay was 100-15000 ng/ml in 100% serum. […] AUC (Area Under the Curve); Cmax (Maximum Concentration observed); Tmax (Time of Maximum concentration observed)

[3] = system: peripheral blood mononuclear cells (PBMC); assay: RESTORE cytokine release assay in absence of TCR stimulation; type: cell-based, human; design: IFNγ: unit not given beside the values
Experimental: The ability of variant CD80-Fc fusion proteins to promote cytokine release in the absence of TCR stimulation was assessed in the RESTORE (RESetting T cells to Original Reactivity) assay (Römer et al, Blood, 2011). Freshly isolated peripheral blood mononuclear cells (PBMC) from whole blood of several healthy donors were cultured for 48 hours at […] within RPMI1640 media supplemented with 10% autologous plasma, 10 mM HEPES, 1× GlutaMAX, 1× PenStrep, beta2-mercaptoethanol, NEAA and sodium pyruvate. Following the 48-hour incubation, PBMC were pelleted and resuspended at a final concentration of 10^6/ml with indicated soluble drug. Treatment was allowed for 48 hours then supernatant was harvested and assessed in IL-2 and IFNγ ELISA according to manufacturer's protocol (BioLegend).
Positive controls included CD28 superagonist anti-CD28 clone TGN1412 as IgG1 and IgG4 isotypes and anti-CD3. […] Values shown are the average of 3 technical replicates. D=Donor.

[4] = Thermal forced aggregation (SEC); type: physicochemical; conditions: 24 hours, PBS
Experimental: To assess the aggregation propensity of variant CD80-Fc fusion proteins, 1 mg/ml of CD80-Fc fusion protein was incubated in PBS at increasing temperatures for 24 hours. The samples were analyzed by SEC on an Agilent 1100 (Agilent Technologies, Germany) HPLC system using a YMC-Pack Diol-200 (YMC, Germany) analytical size exclusion chromatography column and PBS supplemented to 400 mM NaCl as running buffer. % aggregation was calculated from the loss of intact peak area. […] ND=Not Determined.

Substance: CD80-K89Q-D90Q-Fc: variant CD80 ECD (K89Q, D90Q) fused to human IgG1 Fc
enhanced co-stimulation compared to CD80-WT-Fc [1]: about 4 fold
AUC ([2]; 3 mpk IV): 1230 µg·h/mL
AUC fold-increase over WT ([2]; 3 mpk IV): 0.50
Cmax ([2]; 3 mpk IV): 89.4 µg/mL
Tmax ([2]; 3 mpk IV): 4.98 min
AUC ([2]; 15 mpk IV): 12100 µg·h/mL
AUC fold-increase over WT ([2]; 15 mpk IV): 0.87
Cmax ([2]; 15 mpk IV): 570 µg/mL
Tmax ([2]; 15 mpk IV): 4.98 min
AUC ([2]; 50 mpk IV): 27300 µg·h/mL
AUC fold-increase over WT ([2]; 50 mpk IV): 0.74
Cmax ([2]; 50 mpk IV): 1420 µg/mL
Tmax ([2]; 50 mpk IV): 4.98 min
IFNγ ([3]; Table 20, D222, 1 μg/ml): 3.7
IL-2 ([3]; Table 20, D222, 1 μg/ml): 4.3
IFNγ ([3]; Table 20, D222, 10 μg/ml): 4.0
IL-2 ([3]; Table 20, D222, 10 μg/ml): 4.0
IFNγ ([3]; Table 20, D281, 1 μg/ml): 3.3
IL-2 ([3]; Table 20, D281, 1 μg/ml): 2.3
IFNγ ([3]; Table 20, D281, 10 μg/ml): 6.7
IFNγ ([3]; Table 20, D462, 1 μg/ml): 7.0
IFNγ ([3]; Table 20, D462, 10 μg/ml): 15.0
IL-2 ([3]; Table 20, D462, 10 μg/ml): 1.7
IFNγ ([3]; Table 20, D547, 1 μg/ml): 4.0
IL-2 ([3]; Table 20, D547, 1 μg/ml): 6.3
IFNγ ([3]; Table 20, D547, 10 μg/ml): 8.0
IL-2 ([3]; Table 20, D547, 10 μg/ml): 3.3
% aggregation ([4]; Table 11, 40° C.): 69.9%
% aggregation ([4]; Table 11, 45.3° C.): 77.7%
% aggregation ([4]; Table 11, 49.4° C.): 78.0%

EC50 ([1]; Table 17, 20 ng/ml CDH3×CD3 bispecific, n=2): 0.58 ± 0.074 nM
Substance: CD80-WT-Fc: wild-type human CD80 extracellular domain fused to human IgG1 Fc (C220S) [reference compound]
AUC ([2]; 3 mpk IV): 2480 µg·h/mL
Cmax ([2]; 3 mpk IV): 90.7 µg/mL
Tmax ([2]; 3 mpk IV): 4.98 min
AUC ([2]; 15 mpk IV): 13900 µg·h/mL
Cmax ([2]; 15 mpk IV): 460 µg/mL
Tmax ([2]; 15 mpk IV): 4.98 min
AUC ([2]; 50 mpk IV): 37000 µg·h/mL
Tmax ([2]; 50 mpk IV): 4.98 min
IFNγ ([3]; Table 20, D222, 1 μg/ml): 4.3
IL-2 ([3]; Table 20, D222, 1 μg/ml): 7.7
IFNγ ([3]; Table 20, D222, 10 μg/ml): 3.3
IL-2 ([3]; Table 20, D222, 10 μg/ml): 9.3
IFNγ ([3]; Table 20, D281, 1 μg/ml): 3.0
IL-2 ([3]; Table 20, D281, 1 μg/ml): 3.0
IFNγ ([3]; Table 20, D281, 10 μg/ml): 3.3
IL-2 ([3]; Table 20, D281, 10 μg/ml): 2.0
IFNγ ([3]; Table 20, D462, 1 μg/ml): 6.0
IL-2 ([3]; Table 20, D462, 1 μg/ml): 1.7
IFNγ ([3]; Table 20, D462, 10 μg/ml): 7.3
IL-2 ([3]; Table 20, D462, 10 μg/ml): 2.0
IFNγ ([3]; Table 20, D547, 1 μg/ml): 4.0
IL-2 ([3]; Table 20, D547, 1 μg/ml): 9.0
IFNγ ([3]; Table 20, D547, 10 μg/ml): 3.3
IL-2 ([3]; Table 20, D547, 10 μg/ml): 5.3
IL-2 ([3]; Table 21, D132, 1.9 μg/ml): 0.0
IL-2 ([3]; Table 21, D132, 5.6 μg/ml): 0.0
IL-2 ([3]; Table 21, D132, 16.7 μg/ml): 0.3
IL-2 ([3]; Table 21, D149, 1.9 μg/ml): 0.3
IL-2 ([3]; Table 21, D149, 5.6 μg/ml): 4.3
IL-2 ([3]; Table 21, D149, 16.7 μg/ml): 0.0
IL-2 ([3]; Table 21, D149, 50 μg/ml): 0.0
IL-2 ([3]; Table 21, D379, 1.9 μg/ml): 3.3
IL-2 ([3]; Table 21, D379, 50 μg/ml): 0.3
IL-2 ([3]; Table 21, D399, 1.9 μg/ml): 0.0
IL-2 ([3]; Table 21, D399, 5.6 μg/ml): 0.0
IL-2 ([3]; Table 21, D399, 16.7 μg/ml): 0.0
IL-2 ([3]; Table 21, D399, 50 μg/ml): 3.0
IL-2 ([3]; Table 21, D417, 1.9 μg/ml): 5.7
IL-2 ([3]; Table 21, D417, 5.6 μg/ml): 10.7
IL-2 ([3]; Table 21, D417, 16.7 μg/ml): 0.3
IL-2 ([3]; Table 21, D417, 50 μg/ml): 0.3
IL-2 ([3]; Table 21, D518, 1.9 μg/ml): 4.7
IL-2 ([3]; Table 21, D518, 5.6 μg/ml): 4.7
IL-2 ([3]; Table 21, D518, 16.7 μg/ml): 1.3
IL-2 ([3]; Table 21, D518, 50 μg/ml): 2.7
IFNγ ([3]; Table 22, D132, 1.9 μg/ml): 14.3
IFNγ ([3]; Table 22, D132, 5.6 μg/ml): 0.0
IFNγ ([3]; Table 22, D132, 16.7 μg/ml): 0.0
IFNγ ([3]; Table 22, D132, 50 μg/ml): 12.3
IFNγ ([3]; Table 22, D149, 5.6 μg/ml): 0.0
IFNγ ([3]; Table 22, D149, 16.7 μg/ml): 0.0
IFNγ ([3]; Table 22, D149, 50 μg/ml): 5.7
IFNγ ([3]; Table 22, D379, 1.9 μg/ml): 0.3
IFNγ ([3]; Table 22, D379, 5.6 μg/ml): 0.0
IFNγ ([3]; Table 22, D379, 16.7 μg/ml): 0.0
IFNγ ([3]; Table 22, D379, 50 μg/ml): 0.0
IFNγ ([3]; Table 22, D399, 1.9 μg/ml): 0.0
IFNγ ([3]; Table 22, D399, 5.6 μg/ml): 0.0
IFNγ ([3]; Table 22, D399, 16.7 μg/ml): 0.0
IFNγ ([3]; Table 22, D399, 50 μg/ml): 18.3
IFNγ ([3]; Table 22, D417, 1.9 μg/ml): 0.0
IFNγ ([3]; Table 22, D417, 5.6 μg/ml): 146.7
IFNγ ([3]; Table 22, D417, 16.7 μg/ml): 13.3
IFNγ ([3]; Table 22, D417, 50 μg/ml): 0.0
IFNγ ([3]; Table 22, D518, 1.9 μg/ml): 0.0
IFNγ ([3]; Table 22, D518, 5.6 μg/ml): 0.0
IFNγ ([3]; Table 22, D518, 16.7 μg/ml): 0.0
IFNγ ([3]; Table 22, D518, 50 μg/ml): 0.0
% aggregation ([4]; Table 11, 40° C.): 18.0%
% aggregation ([4]; Table 11, 45.3° C.): 45.4%
% aggregation ([4]; Table 11, 49.4° C.): 50.8%
% aggregation ([4]; Table 12, 40° C.): 0.6%
% aggregation ([4]; Table 12, 45.3° C.): 64.9%
% aggregation ([4]; Table 12, 49.4° C.): 83.4%
